The record followed here is article PMC6536502, “Structural insights into DNA recognition by AimR of the arbitrium communication system in the SPbeta phage” (Cell Discovery, 2019).

Common to all, as to assay: EMSA; 5 mM Mg2+; EMSA: 25 mM Tris-HCl pH 8.0, 150 mM NaCl, 5 mM MgCl2, 5 mM DTT, 0.1 mg/ml BSA, 10% glycerol, 50 ug/ml salmon sperm DNA, 4 C, 15 min; smFRET: 20 mM phosphate pH
In series [1] the target is T1, AimR T44D (Bacillus phage SPbeta, UniProt O64094 1-386, T44D).
T1 sequence: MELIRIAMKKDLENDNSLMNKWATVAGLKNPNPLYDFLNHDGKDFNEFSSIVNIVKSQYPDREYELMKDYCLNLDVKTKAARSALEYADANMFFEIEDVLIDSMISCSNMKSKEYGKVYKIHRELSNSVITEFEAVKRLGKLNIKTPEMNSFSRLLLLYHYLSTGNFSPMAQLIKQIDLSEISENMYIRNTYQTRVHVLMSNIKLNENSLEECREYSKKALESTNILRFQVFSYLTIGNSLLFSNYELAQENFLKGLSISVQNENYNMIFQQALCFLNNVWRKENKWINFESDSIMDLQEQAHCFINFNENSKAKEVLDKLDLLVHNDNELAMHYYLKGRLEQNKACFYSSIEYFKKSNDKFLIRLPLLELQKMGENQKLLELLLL
The conditions noted are these: protein: recombinant; tags: 6xHis removed by drICE; chain copies: 2.

The target in series [2] is T2, AimR (Bacillus phage SPbeta, UniProt O64094 1-386).
T2 sequence: T1 sequence with D44T
To be noted: protein: recombinant; tags: C-terminal 8xHis; chain copies: 2.

The target of series [3] is T3, AimR N32A (Bacillus phage SPbeta, UniProt O64094 1-386, N32A).
T3 sequence: T1 sequence with N32A, D44T
The conditions noted are these: protein: recombinant; tags: 6xHis removed by drICE; chain copies: 2.

For orientation: Kd means the concentration at which binding is half-saturated.

Residue numbers refer to the chain shown, from its start.

B1: 31 bp aimX-upstream palindromic DNA (dsDNA)
DNA 1: ACTTAAATATTAGGTTTTAATAACATCTAGT
DNA 2: ACTAGATGTTATTAAAACCTAATATTTAAGT
Consider B1, for which the binding signal in series [1] was 11 fold lower affinity than WT AimR. Moreover, the Kd was 0.101 ± 0.0276 µM in series [2] and 6.82 ± 2.25 µM in series [3].
